Article PMC6315137, “Pyridine Nucleotide Coenzyme Specificity of p-Hydroxybenzoate Hydroxylase and Related Flavoprotein Monooxygenases” (Frontiers in Microbiology, 2018)

Experiments:
Assay in all cases: purified protein
purified protein [1] = substrate: O=C(O)c1ccc(O)cc1; format: biochemical, Cupriavidus necator; details: 175 μM NADPH, 60 μM FAD, 50 mM Tris/sulfate pH 7.5, 30°C
purified protein [2] = substrate: NC(=O)C1=CN([C@@H]2O[C@H](COP(=O)(O)OP(=O)(O)OC[C@H]3O[C@@H](n4cnc5c(N)ncnc54)[C@H](OP(=O)(O)O)[C@@H]3O)[C@@H](O)[C@H]2O)C=CC1; format: biochemical, Cupriavidus necator; details: 500 μM 4-hydroxybenzoate, 60 μM FAD, 50 mM Tris/sulfate pH 7.5, 30°C
purified protein [3] = substrate: NC(=O)C1=CN([C@@H]2O[C@H](COP(=O)(O)OP(=O)(O)OC[C@H]3O[C@@H](n4cnc5c(N)ncnc54)[C@H](O)[C@@H]3O)[C@@H](O)[C@H]2O)C=CC1; format: biochemical, Rhodococcus opacus; details: 500 μM 4-hydroxybenzoate, 60 μM FAD, 50 mM Tris/sulfate pH 7.5, 30°C
purified protein [4] = substrate: O=C(O)c1ccc(O)cc1; format: biochemical, Rhodococcus opacus; details: 175 μM NADH, 60 μM FAD, 50 mM Tris/sulfate pH 7.5, 30°C
purified protein [5] = substrate: NC(=O)C1=CN([C@@H]2O[C@H](COP(=O)(O)OP(=O)(O)OC[C@H]3O[C@@H](n4cnc5c(N)ncnc54)[C@H](OP(=O)(O)O)[C@@H]3O)[C@@H](O)[C@H]2O)C=CC1; format: biochemical, Rhodococcus opacus; details: 500 μM 4-hydroxybenzoate, 60 μM FAD, 50 mM Tris/sulfate pH 7.5, 30°C
purified protein [6] = substrate: NC(=O)C1=CN([C@@H]2O[C@H](COP(=O)(O)OP(=O)(O)OC[C@H]3O[C@@H](n4cnc5c(N)ncnc54)[C@H](O)[C@@H]3O)[C@@H](O)[C@H]2O)C=CC1; format: biochemical, Cupriavidus pinatubonensis; details: 500 μM 4-hydroxybenzoate, 60 μM FAD, 50 mM Tris/sulfate pH 7.5, 30°C
purified protein [7] = substrate: O=C(O)c1ccc(O)cc1; format: biochemical, Cupriavidus pinatubonensis; details: 175 μM NADH, 60 μM FAD, 50 mM Tris/sulfate pH 7.5, 30°C

B1: PHBHCn2 (Cupriavidus pinatubonensis JMP134) (protein)
chain: MRTQVAIIGAGPAGLLLGQLLSRAGIDNIIVEQRSPEYVLGRIRAGILESVTVDALERAGVAARLHDEGLPHAGIELSFNGQRHRIDLQALTGRTVTVYGQTEVTRDLMAARQAEGTTTIYEAADVSLHGFDGTRPLVRYRKDGATHEIECDYIAGCDGFHGVSRQSVPATSSQLFERVYPFGWLGILSDTPPVADELIYASHERGFALCSMRSKARSRYYVQVPSTERVEDWSDERFWDELRSRLDPQAAESLVTGPSIEKSIAPLRSFVCEPMRFGRLFLAGDAAHIVPPTGAKGLNLAASDVLYLADALTARYQQDDLRELDSYSEKCLRRIWKAERFSWWMTSLLHRFPDADAFSARIQQAELDFLVSSEAACKALAENYVGLPY
notes: N-terminal His10-tag, codon-optimized gene, E. coli BL21 (DE3) pLysS, Ni-chelate purified; motif 32-EQRSPEYVLGR
Q: With B1 as the protein, how does the Km (purified protein [1]) read?
A: 26.4 ± 4.4 µM

Q: What about the Vmax (purified protein [1]) of the same protein?
A: 27 µmol/min/mg

Q: What about the kcat (purified protein [1]) of the same protein?
A: 18 ± 0.7 s⁻¹

Q: And the Km (purified protein [2])?
A: 146 ± 20 µM

Q: What about the Vmax (purified protein [2]) of the same protein?
A: 49.1 µmol/min/mg

Q: And the kcat (purified protein [2])?
A: 37 ± 2.8 s⁻¹

B2: PHBHRo1CP (Rhodococcus opacus) (protein)
chain: MNTQVGIVGGGPAGLMLSHLLHLKGIDSVVLESRTREEVEGTIRAGVLEQNTVDLMVDTGLGDRVKREGLTHHGIELRFGGRGHRIDFDELTNGRAVTVYPQHEVLKDLIARRLEDDGDIRFGVSDVQVHDHTSDNPKITYLDADGNEQTLTCALVAGCDGSRTSTRGLIPETTVRTDHFRQYPFAWFGILAEAPPSSEELIYANHPRGFALISTRTPEVQRHYLQVDPDDSVDNWSDDRIWSELHARVDGEGAEIKDGKIFQKSILQFRSFVCEPMQHGNLFLAGDAAHTVPPTGAKGMNLAIADVYFLSQAMAEYFATRSRAGLEGYTDSVLPRVWRTQHFSWWMSSMLHRLPDETGFGHKRQVAELDMVTRSVAGRTLIAENYVGTPLG
notes: His10-tagged, pET16bp, E. coli, Ni-chelate purified; motif 32-ESRTREEVEGT
Q: Which Km (purified protein [3]) does the source give for B2 here?
A: 39.7 ± 5.0 µM

Q: And the Vmax (purified protein [3])?
A: 20 µmol/min/mg

Q: What about the kcat (purified protein [3]) of the same protein?
A: 15.3 ± 0.7 s⁻¹

Q: And the Km (purified protein [4])?
A: 30.4 ± 2.4 µM

Q: What about the Vmax (purified protein [4]) of the same protein?
A: 16.8 µmol/min/mg

Q: And the kcat (purified protein [4])?
A: 12.9 ± 0.2 s⁻¹

Q: What about the Km (purified protein [5]) of the same protein?
A: 153 ± 16 µM

Q: What about the Vmax (purified protein [5]) of the same protein?
A: 19.8 µmol/min/mg

Q: What about the kcat (purified protein [5]) of the same protein?
A: 15 ± 1.5 s⁻¹

B3: PHBHCn1 (Cupriavidus pinatubonensis JMP134) (protein)
chain: MRTRVAIIGAGPAGLLLGHLLQRAGIDSVILEDCTQAHVEARIRAGVLEQGTVDLLEEAGVAARLREQGMVHHGIDLLFDGQRHRIDLSGLTGGRAITVYGQHEVVRDLIAARQACGAPLLFEVSQVALHGLDTQSPSLSFEHGGQRHVLACDFIAGCDGSHGVSRHAVPAGALQVFERSYPFAWLGILASAAPAAQELIYASHARGFALFSMRSPEITRLYLQCRPDEDLAGWTDRRIWDELHARLETGDGWHLNEGPVLQKGITPMRSLVTEPMQYGRLFLAGDAAHIVPPTGAKGMNLAVADVRNLAHALVTHYRHGRDDLLAGYSSACLARVWRAEHFSWWMTSLLHRFDDHTPFTARLQHAELAYVCASQAASRMLAENYVGLPFAPLPA
notes: N-terminal His10-tag, codon-optimized gene, E. coli BL21 (DE3) pLysS, Ni-chelate purified; motif 32-EDCTQAHVEAR
Q: Which results are given for B3?
A: Km (purified protein [6]): 49.8 ± 5.6 µM; Vmax (purified protein [6]): 12.3 µmol/min/mg; kcat (purified protein [6]): 9.4 ± 0.4 s⁻¹; Km (purified protein [7]): 20.2 ± 2.3 µM; Vmax (purified protein [7]): 9.9 µmol/min/mg; kcat (purified protein [7]): 7.6 ± 0.2 s⁻¹
